The values below come from the supplement of paper PMC12042874.

± gives the uncertainty stated by the source.

A short description of this data set: amyloid nucleation score (Sup35N fusion, yeast selection) (log enrichment); library NNK2; higher = more nucleation; inactive = no reads after selection. In short, it runs like this: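 In psi-negative yeast, Sup35N fusions carrying peptides of 20 random codons were induced with 100 μM copper sulfate for 24 hours. The cells then grew 7 days at 30°C on medium lacking adenine and uracil, and plasmid inserts from input and output were Illumina-sequenced, excluding sequences with under 100 input reads. Nucleation score is the DiMSum log enrichment of output over input reads, centred on the mode score of non-aggregating sequences.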
LRSYWSGIGTTGPV came in with an amyloid nucleation score of 4.57 ± 0.1. The same measure for FGVNDLYSDLW: -0.68 ± 0.25; for TVKCLYMGNGAWKTASSVCG: 0.482 ± 0.38; for WFQLRMVLTGEFEPVLERSR: 2.86 ± 0.11. Turning to SGFNGFSLNHFQNQFKTPRS, the amyloid nucleation score is -0.356 ± 1.1. The same measure for GCLLRCDKRGGLRPSW: 0.66 ± 0.24; for NYNLRDHSDVRVRCSLALSE: “inactive”. TANKLLVSIIKIEEYVSRGT had an amyloid nucleation score of 4.73 ± 0.058. Substance CKCSAAIDVRDYVS returned an amyloid nucleation score of -0.02 ± 1.1. As to FAMNSVSFSAGNFTDSVPWW, the amyloid nucleation score was -0.666 ± 0.63. QVPGYIAQSKML: the amyloid nucleation score came out at 0.407 ± 0.43. Turning to YWLNMWFYRSSASYRSMDMD, the amyloid nucleation score is -0.713 ± 0.55. As for LLRMKTFDHWYRAREGFAYC, the amyloid nucleation score was -0.512 ± 0.3. Regarding ASMCIGRWIFGEYYSFNMFI, the amyloid nucleation score came to 0.775 ± 0.38. The same measure for VMGIEMIFVVGLWQLEDVKG: 0.747 ± 0.23; for DLDRPYRDIFGTT: “inactive”. Substance NHMKFAGLGGCYSYCTFLVD returned an amyloid nucleation score of 6.587 ± 0.045. Regarding FVFTLIWGHSSKLSESVSFL, the amyloid nucleation score result is “inactive”. TRMMCKRFRIML gave an amyloid nucleation score of 0.544 ± 0.49. The substance SCPMTSYGE showed an amyloid nucleation score of 0.319 ± 0.8. For the substance VICLTIYRIDECLVCLLYVA, the amyloid nucleation score is -0.405 ± 0.33. For the substance IFPFLDFRRFFLVYHVGPIS, the amyloid nucleation score is 2.4 ± 0.24. For the substance SWCIMALRTF, the amyloid nucleation score came to 0.249 ± 0.65. For the substance LTNKLELNLGASIADSVGNN, the amyloid nucleation score was -0.89 ± 0.49. For the substance LVCSCIGHVHGVTH, the amyloid nucleation score was 7.125 ± 0.067. The result for GWEYYSCGENWSLSPLSGYN reads -0.969 ± 0.34; that for FKDRYRTGFSDVRNQVAHSV, “inactive”.

With DFIITVL, the amyloid nucleation score was -1.05 ± 0.78. Turning to CMTGNYYQP, the amyloid nucleation score entry was “inactive”.

Turning to NGSDRWQASHRTNWGMVGFG, the amyloid nucleation score came out at 0.597 ± 0.44.

For PAPCTFRYLAITCGLTRYTC, the amyloid nucleation score is -0.143 ± 0.34. The result for LFTIVTTFKRS reads 6.443 ± 0.056; that for HNSMSWFR, 4.45 ± 0.058.

For the substance YLHHIRCGYWVVVFVSTGSA, the amyloid nucleation score was -0.252 ± 0.41. The same measure for IHICKQTCG: 0.812 ± 0.3; for IYAQAFFVYHTLFWGGGDQW: 0.495 ± 0.16; for SFRFGEKDCWLDCCRVMRKK: 5.59 ± 0.068. Substance HLFPAGRSKTHAVFWFQGKG came in with an amyloid nucleation score of 0.412 ± 0.37. SFITCRFNRDCFLLQFSWYN: the amyloid nucleation score result was “inactive”.

CKHDCETWWCSY: the amyloid nucleation score was 3.48 ± 0.058. As for MSVTWYLGNWVTVL, the amyloid nucleation score is -1.09 ± 0.79. Regarding LLYYPIDGQGDGWLWCVYRV, the amyloid nucleation score is -0.067 ± 1.1. On to VRFEELTEY, for which the amyloid nucleation score is -0.171 ± 1. With LSSTFLNFA, the amyloid nucleation score result was “inactive”. VKYYQGIGVWSKVWIMFD showed an amyloid nucleation score of 0.7 ± 0.42. In turn, RVSLLMYGWRVGRTNVCGLC yielded an amyloid nucleation score of 1.41 ± 0.53. As to SAVHENVIGVFFGVLVYSNA, the amyloid nucleation score came out at 2.42 ± 0.1.

FVQAVDVVWFGILLKVLFRS: the amyloid nucleation score result was “inactive”.

Regarding NHTLVLLIRNSNVHVSTAQS, the amyloid nucleation score amounted to 10.78 ± 0.07.

Substance LLNVPGLVAYEIRGPMRYLF registered an amyloid nucleation score of -0.519 ± 0.44. With LGGSSENYGVDCNYYPEMWG, the amyloid nucleation score is -1.24 ± 0.54. The result for VYLFGGIRFDR reads 4.04 ± 0.049. For WIARC, the amyloid nucleation score was -0.149 ± 0.42. The result for FTSLGMQLCYWHRISLCVSW reads -1.05 ± 0.61; that for DSDHIYNRERQVIFGG, -0.607 ± 0.5. In turn, CAISM had an amyloid nucleation score of 4.271 ± 0.039. RIYFVEFMESWWGVGSLKEV yielded an amyloid nucleation score of 3.51 ± 0.094.

For CMFFCYYLWMMRMVWSVTWS, the amyloid nucleation score is -0.589 ± 0.53. PHDGMHINT had an amyloid nucleation score of 1.53 ± 0.31. On to VDFFVFHLVTDSIMSYAHCM, for which the amyloid nucleation score was 0.633 ± 0.66. Turning to HRYISNISKYESKNWRVPVG, the amyloid nucleation score result was “inactive”. For FYCYNFFWFL, the amyloid nucleation score worked out at 6.085 ± 0.033. The same measure for ESIYLVGICGSSG: 0.247 ± 1; for FRYCAGLMTYRLEFG: 2.49 ± 0.068; for IRYTFSKLRSDCFMRCARSW: 0.898 ± 0.23. For the substance IRCQSVRDIGLYFDLDWVEK, the amyloid nucleation score came to 2.28 ± 0.085. Consider ASVRENFYIGLCRKCYYHNP, for which the amyloid nucleation score stood at 1.59 ± 0.16. EINGY: the amyloid nucleation score was -0.418 ± 1. The result for CWNDVIQKMVQYNTINFVLS reads 4.88 ± 0.063; that for IGSRS, -1.25 ± 0.48; that for SYCLDDMRPWLHESTLSLSM, -0.033 ± 0.3. As for MAYGGPFSVLSSWDDADNGY, the amyloid nucleation score was -0.05 ± 0.5. In the case of FSGHILGRPFDGRSLVCMS, the amyloid nucleation score result is “inactive”. The result for LVTVSVVPSWSAVRPTGMNV reads 0.84 ± 0.46. The result for LELVCRPISMALLEEWKGTR reads 0.393 ± 0.48; that for LHNLAAGNSRLTSNLMFALA, “inactive”; that for IPFLLTHDEHAAGCPAMKSY, 0.223 ± 0.33. In the case of DINVCRVYEY, the amyloid nucleation score was -0.011 ± 1.1.

The substance SDTVYLIFFSLAYNYVKRVT came in with an amyloid nucleation score of -1.74 ± 0.41. TLRVLCTVCYSMDRVAA: the amyloid nucleation score entry is “inactive”. In the case of YIMTYDYVCKNVGWYFTRC, the amyloid nucleation score entry was “inactive”.

CSRIHMRIARSSLF showed an amyloid nucleation score of 1.18 ± 0.39. VVNSGICSYRCFTVGQVTYK came in with an amyloid nucleation score of -0.553 ± 0.55. KDYSGGIRHPVVPSGMISYL: the amyloid nucleation score was -1.44 ± 1.1.

Turning to SFDSVELARGTASCRVAYFV, the amyloid nucleation score worked out at 0.731 ± 0.35. The result for GLYTKT reads 0.028 ± 0.14; that for GTILPCNWNNLLYWVVGENA, 0.438 ± 0.25; that for VYQYICFRVYGVVHWVGSSA, 1.4 ± 0.28. For HLSRFKWKHLFLNTVLTFAV, the amyloid nucleation score result was “inactive”. In turn, FTTPVSFSFVLRLITTPRTY returned an amyloid nucleation score of -1.29 ± 0.75.

Take DFALALVYTSMCLVVLYSML: the amyloid nucleation score stood at 4.4 ± 0.063. On to NSTLGGVFACYYFALSHAAE, for which the amyloid nucleation score worked out at 6.41 ± 0.059. On to RARFHFVKTCSTQRSMPHMG, for which the amyloid nucleation score came to 3.21 ± 0.073.

Turning to TMLETLRARADLMCQVWYSV, the amyloid nucleation score is 0.964 ± 0.4. IGYVEAWWVFLVGSDAVRAP had an amyloid nucleation score of -0.018 ± 1.1. SDSFKDPTWREDNRGW gave an amyloid nucleation score of 2.54 ± 0.085. Regarding ETKWPDHYK, the amyloid nucleation score turned out to be 0.515 ± 0.64. Substance SSFWFSGAADINRVVLRGIE gave an amyloid nucleation score of -0.175 ± 0.32. In the case of IGCFTLR, the amyloid nucleation score amounted to 1.58 ± 0.088. With ICCTSSANNSTPPQSCWTPK, the amyloid nucleation score stood at 5.84 ± 0.076. As for NPGVDQTHFLGFLI, the amyloid nucleation score was -1.85 ± 1.1.

The substance MAGWLLNINLLMPIVGDVLQ gave an amyloid nucleation score of 8.131 ± 0.056. Take AFTACRYMVSPFFSLMFSTS: the amyloid nucleation score is 0.265 ± 1.1. GEYINAWSLNIV gave an amyloid nucleation score of -0.683 ± 0.64.

SAFYSDAL had an amyloid nucleation score of 1.08 ± 0.54. The substance EFYFSVRPVKLCFGLNVTNN came in with an amyloid nucleation score of -0.146 ± 1. With VFSDWMNCRYLMLRVCRVPR, the amyloid nucleation score stood at 0.629 ± 0.56. In turn, HCMLEYRMIVCVLVYAGYNM showed an amyloid nucleation score of 0.448 ± 0.47.

Turning to NWVRINYWLRAIIKSELRVG, the amyloid nucleation score was -0.155 ± 0.49. As to ARKCDLFYTFFCTNIFSSVG, the amyloid nucleation score was found to be 4.798 ± 0.039.

The substance CPVFGSIGGLISNSWYVTLM showed an amyloid nucleation score of 5.335 ± 0.046. In the case of MLVDVLGC, the amyloid nucleation score result is “inactive”.

For LWVLTSRDDVFMVVFFMTPK, the amyloid nucleation score is -0.483 ± 0.5. VLFCMSYKSARLEL gave an amyloid nucleation score of 6.08 ± 0.07.

As to CGFHYFFRSTGYMAVAIIIR, the amyloid nucleation score result was “inactive”. In turn, YWGGLCHLMSYRFTCIKYVG showed an amyloid nucleation score of -0.698 ± 0.64. On to TMHYYLWDSN, for which the amyloid nucleation score is 4.88 ± 0.1. The same measure for CYNVGEGIVARIRGGSKGLK: 0.619 ± 0.81; for SCCYVLKRDFKLMNNVPSGR: -0.033 ± 0.2; for ITWNIVGGHFS: -0.412 ± 1.1. NMLWASMYH yielded an amyloid nucleation score of -0.546 ± 0.42. Consider TCCQDYLLIWYCMDSIRNVR, for which the amyloid nucleation score came to 9.611 ± 0.034. LWITVRATPRLDRS came in with an amyloid nucleation score of 1.03 ± 0.21. In the case of KLRIVMMNRIFTSNL, the amyloid nucleation score stood at 5.16 ± 0.1. With NINYGSSA, the amyloid nucleation score was -0.746 ± 0.78. LKNRILPFSNHELIVAGLGL displayed an amyloid nucleation score of -0.388 ± 1. As for LVNDHGVSVVSCGTD, the amyloid nucleation score was found to be 0.053 ± 0.79. In turn, KSPCIVQTTILYNYMAVVIS yielded an amyloid nucleation score of 3.83 ± 0.12. Regarding FFSNIFIEASVCELGSNANV, the amyloid nucleation score worked out at 1.03 ± 0.23. Consider FWDRMGLNEEVFQGSLSSAW, for which the amyloid nucleation score entry was “inactive”.

With ASAAYWASVHICPNLSKRKL, the amyloid nucleation score is 0.328 ± 0.65. For the substance VRCKVCPGRAYFDMRAPMQS, the amyloid nucleation score was -0.512 ± 0.63.

In turn, AFSSLFWIWIPSNMRSQVLK yielded an amyloid nucleation score of 0.124 ± 0.42. The result for MAMVLWLECTS reads 0.924 ± 0.47. The same measure for SYVVCSVIGYYDYLRSRPSC: 9.631 ± 0.036; for KSCFWLRDI: -0.457 ± 0.28. In the case of REEYCSFTICWSLDALHDRG, the amyloid nucleation score was 0.527 ± 0.65. For the substance APANVRWLNFSGLDSNGCPY, the amyloid nucleation score result is “inactive”. The result for SKMWTIRYFSLVRCLHGLLN reads -0.985 ± 0.45.
